This is an account of results in patent US20090136998A1 (Stanford University, published 2009).

This experiment deals with T1, human VEGFR-2 expressed on porcine aortic endothelial cells (PAE/VEGFR-2) (human, UniProt P35968 20-1356).
T1 construct: whole, on cells; also called KDR; PAE/KDR cells
In words: competitive bioluminescence ELISA on PAE/VEGFR-2 cells; cold VEGF 121 varied against RL8-VEGF. As to the method:
FIG. 10A illustrates coomassie Blue staining of purified fusion proteins and control proteins. […] FIG. 10B illustrates a Western Blot of purified proteins. […] FIG. 10C illustrates competitive bioluminescence ELISA on PAE/VEGFR-2 overexpressing cells.
Cells were washed and incubated with 0.5 μg of coelenterazine substrate and immediately imaged in the Xenogen IVIS 100 optical cooled charge-coupled device (CCD) (Xenogen, Alameda, Calif.). Regions of interest (ROIs) were drawn over the cell area and quantified in average photons/second/centimeter²/steradian (photons/s/cm²/sr) by using […] version 2.50 (Xenogen, Alameda, Calif.).

T1 sequence (P35968 20-1356): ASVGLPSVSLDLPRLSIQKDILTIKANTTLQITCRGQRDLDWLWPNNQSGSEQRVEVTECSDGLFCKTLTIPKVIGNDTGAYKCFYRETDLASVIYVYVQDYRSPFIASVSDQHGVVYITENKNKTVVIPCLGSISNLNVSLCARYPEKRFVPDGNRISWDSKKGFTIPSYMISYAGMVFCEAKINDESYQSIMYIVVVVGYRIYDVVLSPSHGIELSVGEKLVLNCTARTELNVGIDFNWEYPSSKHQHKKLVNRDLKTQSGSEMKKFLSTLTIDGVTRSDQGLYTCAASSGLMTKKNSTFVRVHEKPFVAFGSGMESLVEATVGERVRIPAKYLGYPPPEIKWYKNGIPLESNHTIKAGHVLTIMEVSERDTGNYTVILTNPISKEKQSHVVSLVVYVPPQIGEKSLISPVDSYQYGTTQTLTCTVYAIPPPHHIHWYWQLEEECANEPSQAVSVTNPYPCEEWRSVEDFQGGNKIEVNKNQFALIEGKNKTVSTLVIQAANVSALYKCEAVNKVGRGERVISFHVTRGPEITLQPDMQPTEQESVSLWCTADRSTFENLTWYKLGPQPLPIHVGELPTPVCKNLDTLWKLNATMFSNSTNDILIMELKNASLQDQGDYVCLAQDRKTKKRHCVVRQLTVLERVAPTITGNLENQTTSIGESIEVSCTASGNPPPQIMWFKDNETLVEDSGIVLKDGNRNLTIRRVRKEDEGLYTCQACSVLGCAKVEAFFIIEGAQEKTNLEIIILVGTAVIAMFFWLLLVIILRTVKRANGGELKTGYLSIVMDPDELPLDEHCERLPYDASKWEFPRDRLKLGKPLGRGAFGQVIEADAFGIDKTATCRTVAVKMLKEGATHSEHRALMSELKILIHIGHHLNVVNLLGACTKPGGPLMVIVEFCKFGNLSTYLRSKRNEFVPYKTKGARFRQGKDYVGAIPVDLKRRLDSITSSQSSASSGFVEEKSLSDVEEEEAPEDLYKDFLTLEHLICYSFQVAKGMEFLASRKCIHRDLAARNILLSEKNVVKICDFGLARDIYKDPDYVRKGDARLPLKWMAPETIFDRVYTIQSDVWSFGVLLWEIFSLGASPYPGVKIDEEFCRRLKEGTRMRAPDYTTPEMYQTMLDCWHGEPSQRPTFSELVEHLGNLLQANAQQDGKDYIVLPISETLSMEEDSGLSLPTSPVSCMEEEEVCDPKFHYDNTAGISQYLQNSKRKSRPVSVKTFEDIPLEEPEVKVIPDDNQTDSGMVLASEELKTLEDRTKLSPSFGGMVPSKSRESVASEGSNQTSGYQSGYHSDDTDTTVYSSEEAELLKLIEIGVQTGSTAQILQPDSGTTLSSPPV

B1: recombinant human VEGF 121 (PeproTech) (ligand, UniProt P15692-9 27-147, looked up)
chain: APMAEGGGQNHHEVVKFMDVYQRSYCHPIETLVDIFQEYPDEIEYIFKPSCVPLMRCGGCCNDEGLECVPTEESNITMQIMRIKPHQGQHIGEMSFLQHNKCECRPKKDRARQEKCDKPRR
The term IC50 denotes the concentration that inhibits the measured activity by half. A high value points to weaker potency. Molecule B1 showed an IC50 of 0.045 µg/mL.
